Measured values taken from patent US20170306033A1 (Amgen, published 2017).
Residue numbers refer to the chain shown, from its start.

T1: human PAC1 receptor (human, UniProt P41586 21-468)
T1 sequence: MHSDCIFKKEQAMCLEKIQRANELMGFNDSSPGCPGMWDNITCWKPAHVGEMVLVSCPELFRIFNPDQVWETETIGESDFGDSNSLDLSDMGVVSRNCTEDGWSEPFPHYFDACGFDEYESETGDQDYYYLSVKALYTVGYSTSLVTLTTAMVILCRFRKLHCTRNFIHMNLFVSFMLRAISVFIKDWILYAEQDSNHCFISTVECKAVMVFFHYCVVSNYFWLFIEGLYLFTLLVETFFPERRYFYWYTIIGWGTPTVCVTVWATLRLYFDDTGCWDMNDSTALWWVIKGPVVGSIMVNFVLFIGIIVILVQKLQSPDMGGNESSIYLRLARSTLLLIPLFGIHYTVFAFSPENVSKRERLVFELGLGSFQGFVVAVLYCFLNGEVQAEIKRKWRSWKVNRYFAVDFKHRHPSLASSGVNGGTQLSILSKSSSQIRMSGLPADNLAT

B1: iPS:386736 (bispecific antibody, human IgG1, kappa, N297G)
light: DIQLTQSPSFLSASVGDRVTITCRASQSIGRSLHWYQQKPGKAPKLLIKYASQSLSGVPSRFSGSGSGTEFTLTISSLQPEDFATYYCHQSSRLPFTFGPGTKVDIKRTVAAPSVFIFPPSDEQLKSGTASVVCLLNNFYPREAKVQWKVDNALQSGNSQESVTEQDSKDSTYSLSSTLTLSKADYEKHKVYACEVTHQGLSSPVTKSFNRGEC
heavy: not shown
B2: iPS:386746 (bispecific antibody, human IgG1, kappa, N297G)
light: B1 light
heavy: not shown
B3: iPS:386754 (bispecific antibody, human IgG1, kappa, N297G)
light: B1 light
heavy: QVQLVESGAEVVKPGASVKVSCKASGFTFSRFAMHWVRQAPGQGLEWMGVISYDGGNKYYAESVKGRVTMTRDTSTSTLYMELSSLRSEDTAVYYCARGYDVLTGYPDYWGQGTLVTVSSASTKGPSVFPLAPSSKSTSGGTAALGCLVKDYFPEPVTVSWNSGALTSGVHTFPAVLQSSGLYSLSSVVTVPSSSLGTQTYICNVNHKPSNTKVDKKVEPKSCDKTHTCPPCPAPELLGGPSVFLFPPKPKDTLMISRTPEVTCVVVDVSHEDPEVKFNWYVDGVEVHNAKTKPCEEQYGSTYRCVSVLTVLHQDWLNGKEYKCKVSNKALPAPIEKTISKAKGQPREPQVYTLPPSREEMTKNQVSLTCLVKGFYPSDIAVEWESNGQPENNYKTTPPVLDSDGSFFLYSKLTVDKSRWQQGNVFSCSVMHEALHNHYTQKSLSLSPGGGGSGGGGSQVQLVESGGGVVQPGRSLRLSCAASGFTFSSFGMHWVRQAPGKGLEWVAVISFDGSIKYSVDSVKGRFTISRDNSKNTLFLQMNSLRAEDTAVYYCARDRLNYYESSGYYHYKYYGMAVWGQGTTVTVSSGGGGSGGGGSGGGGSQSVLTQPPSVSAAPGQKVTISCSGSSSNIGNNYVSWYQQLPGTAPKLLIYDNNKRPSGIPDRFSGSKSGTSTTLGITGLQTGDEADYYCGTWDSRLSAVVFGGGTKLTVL
B4: iPS:386750 (bispecific antibody, human IgG1, kappa, N297G)
light: B1 light
heavy: not shown
B5: iPS:386742 (bispecific antibody, human IgG1, kappa, N297G)
light: B1 light
heavy: not shown
B6: iPS:386756 (bispecific antibody, human IgG1, kappa, N297G)
light: B1 light
heavy: not shown
B7: iPS:386764 (bispecific antibody, human IgG1, kappa, N297G)
light: B1 light
heavy: not shown
B8: iPS:386744 (bispecific antibody, human IgG1, kappa, N297G)
light: B1 light
heavy: not shown
B9: iPS:386740 (bispecific antibody, human IgG1, kappa, N297G)
light: B1 light
heavy: not shown
B10: iPS:386738 (bispecific antibody, human IgG1, kappa, N297G)
light: B1 light
heavy: not shown
B11: iPS:386762 (bispecific antibody, human IgG1, kappa, N297G)
light: B1 light
heavy: not shown
B12: iPS:386752 (bispecific antibody, human IgG1, kappa, N297G)
light: B1 light
heavy: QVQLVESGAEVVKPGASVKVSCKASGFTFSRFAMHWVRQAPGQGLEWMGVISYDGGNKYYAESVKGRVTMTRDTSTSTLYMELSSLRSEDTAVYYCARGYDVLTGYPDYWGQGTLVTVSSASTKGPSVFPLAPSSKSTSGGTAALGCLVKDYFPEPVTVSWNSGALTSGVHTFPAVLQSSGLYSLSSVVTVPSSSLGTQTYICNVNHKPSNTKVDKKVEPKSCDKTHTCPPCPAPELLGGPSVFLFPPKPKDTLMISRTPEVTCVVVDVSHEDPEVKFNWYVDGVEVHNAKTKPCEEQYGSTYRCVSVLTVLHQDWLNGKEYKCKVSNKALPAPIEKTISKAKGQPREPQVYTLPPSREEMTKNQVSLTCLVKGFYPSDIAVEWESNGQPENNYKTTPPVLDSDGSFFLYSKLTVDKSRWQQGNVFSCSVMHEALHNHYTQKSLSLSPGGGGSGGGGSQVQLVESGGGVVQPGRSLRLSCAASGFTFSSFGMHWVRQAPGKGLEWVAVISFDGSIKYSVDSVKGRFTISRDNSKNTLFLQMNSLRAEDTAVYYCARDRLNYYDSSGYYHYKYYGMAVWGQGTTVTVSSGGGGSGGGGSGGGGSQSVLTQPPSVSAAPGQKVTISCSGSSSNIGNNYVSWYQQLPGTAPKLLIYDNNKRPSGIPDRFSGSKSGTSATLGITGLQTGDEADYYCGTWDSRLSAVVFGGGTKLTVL
B13: iPS:386760 (bispecific antibody, human IgG1, kappa, N297G)
light: B1 light
heavy: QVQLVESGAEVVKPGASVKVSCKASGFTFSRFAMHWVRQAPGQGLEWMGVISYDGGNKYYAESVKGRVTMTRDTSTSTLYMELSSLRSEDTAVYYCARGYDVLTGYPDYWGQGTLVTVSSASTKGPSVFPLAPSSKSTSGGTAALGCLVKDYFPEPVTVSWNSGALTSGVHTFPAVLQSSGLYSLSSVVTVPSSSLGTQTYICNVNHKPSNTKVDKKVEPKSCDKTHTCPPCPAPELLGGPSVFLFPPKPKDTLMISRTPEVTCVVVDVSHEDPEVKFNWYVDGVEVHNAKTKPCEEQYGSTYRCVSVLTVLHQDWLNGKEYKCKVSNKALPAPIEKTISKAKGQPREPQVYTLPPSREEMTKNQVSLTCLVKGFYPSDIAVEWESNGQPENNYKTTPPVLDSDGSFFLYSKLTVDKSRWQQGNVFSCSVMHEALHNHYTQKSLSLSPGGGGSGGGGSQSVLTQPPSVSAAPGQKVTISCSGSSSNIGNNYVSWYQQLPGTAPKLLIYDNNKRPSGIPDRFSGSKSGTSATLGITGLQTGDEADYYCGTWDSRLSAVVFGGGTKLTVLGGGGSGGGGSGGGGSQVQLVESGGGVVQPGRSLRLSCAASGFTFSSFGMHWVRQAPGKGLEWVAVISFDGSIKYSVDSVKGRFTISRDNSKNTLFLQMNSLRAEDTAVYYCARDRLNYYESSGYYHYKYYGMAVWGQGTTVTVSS
B14: iPS:386758 (bispecific antibody, human IgG1, kappa, N297G)
light: B1 light
heavy: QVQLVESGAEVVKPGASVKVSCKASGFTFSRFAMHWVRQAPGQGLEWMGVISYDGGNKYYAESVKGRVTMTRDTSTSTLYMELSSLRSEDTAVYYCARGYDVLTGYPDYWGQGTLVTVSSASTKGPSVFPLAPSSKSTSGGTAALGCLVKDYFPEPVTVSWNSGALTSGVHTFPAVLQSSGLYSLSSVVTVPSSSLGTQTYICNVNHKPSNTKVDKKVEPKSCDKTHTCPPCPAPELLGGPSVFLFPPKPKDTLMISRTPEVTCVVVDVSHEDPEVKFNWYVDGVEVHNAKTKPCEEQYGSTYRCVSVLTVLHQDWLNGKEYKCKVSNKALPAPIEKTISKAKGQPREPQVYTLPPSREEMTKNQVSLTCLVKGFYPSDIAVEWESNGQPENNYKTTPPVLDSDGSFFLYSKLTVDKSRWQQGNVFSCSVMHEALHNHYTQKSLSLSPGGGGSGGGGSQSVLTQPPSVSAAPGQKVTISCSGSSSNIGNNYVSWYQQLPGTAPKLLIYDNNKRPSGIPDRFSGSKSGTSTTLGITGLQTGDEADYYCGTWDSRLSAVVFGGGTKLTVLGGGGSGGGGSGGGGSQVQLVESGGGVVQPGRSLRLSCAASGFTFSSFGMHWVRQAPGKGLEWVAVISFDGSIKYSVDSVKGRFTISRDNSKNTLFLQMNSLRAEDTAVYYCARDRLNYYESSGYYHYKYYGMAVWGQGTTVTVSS
B15: iPS:386748 (bispecific antibody, human IgG1, kappa, N297G)
light: B1 light
heavy: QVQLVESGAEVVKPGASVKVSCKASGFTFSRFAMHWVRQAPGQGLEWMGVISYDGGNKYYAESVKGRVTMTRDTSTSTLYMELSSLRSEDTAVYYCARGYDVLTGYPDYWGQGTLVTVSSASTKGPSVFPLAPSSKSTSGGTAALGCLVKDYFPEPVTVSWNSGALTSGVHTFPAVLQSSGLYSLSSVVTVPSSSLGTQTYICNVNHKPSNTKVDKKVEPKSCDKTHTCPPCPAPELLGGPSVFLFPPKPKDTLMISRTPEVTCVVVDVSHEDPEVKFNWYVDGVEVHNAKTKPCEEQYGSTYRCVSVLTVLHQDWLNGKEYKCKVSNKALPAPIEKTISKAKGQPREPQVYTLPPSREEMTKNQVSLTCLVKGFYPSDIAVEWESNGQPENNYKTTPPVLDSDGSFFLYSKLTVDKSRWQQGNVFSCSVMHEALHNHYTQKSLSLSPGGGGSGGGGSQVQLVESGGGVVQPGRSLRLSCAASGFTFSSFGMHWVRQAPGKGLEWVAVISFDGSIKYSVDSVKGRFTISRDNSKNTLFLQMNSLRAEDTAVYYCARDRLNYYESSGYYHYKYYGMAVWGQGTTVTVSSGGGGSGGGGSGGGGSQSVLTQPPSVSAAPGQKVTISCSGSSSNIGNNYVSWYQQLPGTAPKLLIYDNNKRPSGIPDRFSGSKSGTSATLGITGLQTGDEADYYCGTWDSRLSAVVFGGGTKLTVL
B16: iPS:386709 (bispecific antibody, human IgG1, lambda, N297G)
light: QSVLTQPPSVSAAPGQKVTISCSGSSSNIGNNYVSWYQQLPGTAPKLLIYDNNKRPSGIPDRFSGSKSGTSATLGITGLQTGDEADYYCGTWDSRLSAVVFGGGTKLTVLGQPKANPTVTLFPPSSEELQANKATLVCLISDFYPGAVTVAWKADGSPVKAGVETTKPSKQSNNKYAASSYLSLTPEQWKSHRSYSCQVTHEGSTVEKTVAPTECS
heavy: not shown
B17: iPS:386721 (bispecific antibody, human IgG1, lambda, N297G)
light: B16 light with G75A
heavy: not shown
B18: iPS:386711 (bispecific antibody, human IgG1, lambda, N297G)
light: B16 light with G75A
heavy: not shown
B19: iPS:386725 (bispecific antibody, human IgG1, lambda, N297G)
light: B16 light with A72T
heavy: not shown
B20: iPS:386733 (bispecific antibody, human IgG1, lambda, N297G)
light: B16 light with G75A
heavy: not shown
B21: iPS:386719 (bispecific antibody, human IgG1, lambda, N297G)
light: B16 light
heavy: not shown
B22: iPS:386717 (bispecific antibody, human IgG1, lambda, N297G)
light: B16 light with A72T
heavy: not shown
B23: iPS:386727 (bispecific antibody, human IgG1, lambda, N297G)
light: B16 light
heavy: not shown
B24: iPS:386731 (bispecific antibody, human IgG1, lambda, N297G)
light: B16 light with A72T
heavy: not shown
B25: iPS:386729 (bispecific antibody, human IgG1, lambda, N297G)
light: B16 light with G75A
heavy: not shown
B26: iPS:386723 (bispecific antibody, human IgG1, lambda, N297G)
light: B16 light
heavy: not shown
B27: iPS:386713 (bispecific antibody, human IgG1, lambda, N297G)
light: B16 light
heavy: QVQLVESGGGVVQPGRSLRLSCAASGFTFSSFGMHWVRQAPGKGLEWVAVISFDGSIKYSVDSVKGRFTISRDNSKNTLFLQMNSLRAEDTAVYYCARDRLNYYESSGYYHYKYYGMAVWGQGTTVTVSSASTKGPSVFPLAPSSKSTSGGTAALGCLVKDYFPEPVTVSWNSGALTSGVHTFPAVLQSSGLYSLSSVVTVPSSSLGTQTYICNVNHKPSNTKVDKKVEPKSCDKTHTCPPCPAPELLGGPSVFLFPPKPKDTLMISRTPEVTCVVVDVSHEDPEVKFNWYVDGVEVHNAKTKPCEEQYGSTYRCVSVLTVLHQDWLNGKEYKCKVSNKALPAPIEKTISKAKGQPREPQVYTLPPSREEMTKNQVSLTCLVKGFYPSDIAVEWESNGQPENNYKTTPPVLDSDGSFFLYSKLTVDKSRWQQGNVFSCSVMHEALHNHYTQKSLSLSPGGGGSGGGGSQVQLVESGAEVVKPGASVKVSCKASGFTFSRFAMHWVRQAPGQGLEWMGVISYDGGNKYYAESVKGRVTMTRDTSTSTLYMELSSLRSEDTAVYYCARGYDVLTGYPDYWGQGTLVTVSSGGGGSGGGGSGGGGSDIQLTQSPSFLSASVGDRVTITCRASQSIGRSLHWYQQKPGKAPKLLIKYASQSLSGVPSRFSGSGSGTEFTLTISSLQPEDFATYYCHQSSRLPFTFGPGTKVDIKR
B28: iPS:386715 (bispecific antibody, human IgG1, lambda, N297G)
light: B16 light with A72T
heavy: not shown

What follows are binders tested against human CGRP receptor (human, UniProt Q16602 23-461; O60894 27-148) (assay: cell-based or functional assay).
Chain of human CGRP receptor (Q16602 23-461 limits assumed, chain 1 of 2): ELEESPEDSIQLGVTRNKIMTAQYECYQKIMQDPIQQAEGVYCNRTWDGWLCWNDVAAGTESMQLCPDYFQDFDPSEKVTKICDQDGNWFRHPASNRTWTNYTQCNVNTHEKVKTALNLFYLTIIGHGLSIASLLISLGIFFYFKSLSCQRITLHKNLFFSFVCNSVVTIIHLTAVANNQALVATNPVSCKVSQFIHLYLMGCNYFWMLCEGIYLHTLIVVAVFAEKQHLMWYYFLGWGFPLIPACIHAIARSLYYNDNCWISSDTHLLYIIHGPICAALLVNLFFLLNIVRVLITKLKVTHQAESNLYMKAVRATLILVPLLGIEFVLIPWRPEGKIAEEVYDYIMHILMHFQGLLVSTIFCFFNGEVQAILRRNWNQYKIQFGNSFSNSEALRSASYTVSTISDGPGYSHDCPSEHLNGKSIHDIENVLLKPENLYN
Chain of human CGRP receptor (O60894 27-148 limits assumed, chain 2 of 2): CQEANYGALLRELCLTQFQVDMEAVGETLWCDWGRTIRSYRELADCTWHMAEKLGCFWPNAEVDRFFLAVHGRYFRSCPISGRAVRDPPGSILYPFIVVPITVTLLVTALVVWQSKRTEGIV

| Human CGRP Receptor IC50 | Binder |
| --- | --- |
| 0.9 nM | B1 |
| 0.79 nM | B2 |
| 0.54 nM | B3 |
| 0.58 nM | B4 |
| 0.61 nM | B5 |
| 1.88 nM | B6 |
| 2.61 nM | B7 |
| 0.61 nM | B8 |
| 0.56 nM | B9 |
| 0.74 nM | B10 |
| 2.8 nM | B11 |
| 0.62 nM | B12 |
| 2.11 nM | B13 |
| 2.32 nM | B14 |
| 0.63 nM | B15 |
| 0.47 nM | B16 |
| 0.22 nM | B17 |
| 0.53 nM | B18 |
| 0.42 nM | B19 |
| 0.34 nM | B20 |
| 0.41 nM | B21 |
| 0.33 nM | B22 |
| 0.72 nM | B23 |
| 0.4 nM | B24 |
| 0.47 nM | B25 |
| 0.27 nM | B26 |
| 0.37 nM | B27 |
| 0.43 nM | B28 |

The binders below were run against T1, human PAC1 receptor (assay: cell-based or functional assay).

| Human PAC1 Receptor IC50 | Binder |
| --- | --- |
| 5.43 nM | B1 |
| 3.28 nM | B2 |
| 5.74 nM | B3 |
| 4.54 nM | B4 |
| 6.39 nM | B5 |
| 7.29 nM | B6 |
| 11.9 nM | B7 |
| 3.63 nM | B8 |
| 4.4 nM | B9 |
| 5.09 nM | B10 |
| 3.55 nM | B11 |
| 6.08 nM | B12 |
| 4.67 nM | B13 |
| 4.11 nM | B14 |
| 2.85 nM | B15 |
| 432 nM | B16 |
| 197 nM | B17 |
| 1210 nM | B18 |
| 549 nM | B19 |
| 74.3 nM | B20 |
| 940 nM | B21 |
| 580 nM | B22 |
| 371 nM | B23 |
| 347 nM | B24 |
| 565 nM | B25 |
| 248 nM | B26 |
| 603 nM | B27 |
| 689 nM | B28 |
